The text below walks through data of patent US20210261626A1 (DONALDSON, published 2021).

The experiment concerns the target human serum albumin (human, UniProt P02768 25-609). Kind of experiment: phase separation pull-down with 0.6 M NaCl and centrifugation, supernatant and pellet on SDS-PAGE.

Sequence of human serum albumin (P02768 25-609 limits assumed): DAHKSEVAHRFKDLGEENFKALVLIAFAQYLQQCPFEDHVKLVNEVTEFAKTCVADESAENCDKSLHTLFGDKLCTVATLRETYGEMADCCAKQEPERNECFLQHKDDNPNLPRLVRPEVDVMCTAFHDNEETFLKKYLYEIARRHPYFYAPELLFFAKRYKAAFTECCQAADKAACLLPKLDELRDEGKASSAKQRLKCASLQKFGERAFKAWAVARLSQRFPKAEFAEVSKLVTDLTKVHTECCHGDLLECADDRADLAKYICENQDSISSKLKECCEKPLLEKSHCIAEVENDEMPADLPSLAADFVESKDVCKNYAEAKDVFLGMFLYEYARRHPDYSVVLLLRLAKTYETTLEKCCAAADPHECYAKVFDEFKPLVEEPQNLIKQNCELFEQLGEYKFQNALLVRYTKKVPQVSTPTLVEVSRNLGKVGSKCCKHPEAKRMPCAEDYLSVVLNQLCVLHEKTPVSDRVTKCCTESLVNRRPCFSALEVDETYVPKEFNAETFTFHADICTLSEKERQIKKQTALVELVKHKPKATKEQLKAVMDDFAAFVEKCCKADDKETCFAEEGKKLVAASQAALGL

B1: ELP1,80-CapG (designed binder)
chain: MSKGPGVGVPGLGVPGVGVPGLGVPGVGVPGVGVPGLGVPGVGVPGLGVPGVGVPVGVPGLGVPGVGVPGLGVPGVGVPGVGVPGLGVPGVGVPGLGVPGVGVPVGVPGLGVPGVGVPGLGVPGVGVPGVGVPGLGVPGVGVPGLGVPGVGVPVGVPGLGVPGVGVPGLGVPGVGVPGVGVPGLGVPGVGVPGLGVPGVGVPVGVPGLGVPGVGVPGLGVPGVGVPGVGVPGLGVPGVGVPGLGVPGVGVPVGVPGLGVPGVGVPGLGVPGVGVPGVGVPGLGVPGVGVPGLGVPGVGVPVGVPGLGVPGVGVPGLGVPGVGVPGVGVPGLGVPGVGVPGLGVPGVGVPVGVPGLGVPGVGVPGLGVPGVGVPGVGVPGLGVPGVGVPGLGVPGVGVPGTYKLILNGKTLKGETTTEAVDAATAEKVFKQYANDNGVDGEWTYDDATKTFTVTEG
notes: Expressed in E. coli; also called fusion comprised of an optimal ELP and a Protein G domain
In the case of B1, the binding result is reported as “no binding”.
